Test results published in article PMC3162126.

Columns and labels:
[1] = molecular target: T1, AidB (Escherichia coli, UniProt P33224 1-541); assay: competition
T1 sequence: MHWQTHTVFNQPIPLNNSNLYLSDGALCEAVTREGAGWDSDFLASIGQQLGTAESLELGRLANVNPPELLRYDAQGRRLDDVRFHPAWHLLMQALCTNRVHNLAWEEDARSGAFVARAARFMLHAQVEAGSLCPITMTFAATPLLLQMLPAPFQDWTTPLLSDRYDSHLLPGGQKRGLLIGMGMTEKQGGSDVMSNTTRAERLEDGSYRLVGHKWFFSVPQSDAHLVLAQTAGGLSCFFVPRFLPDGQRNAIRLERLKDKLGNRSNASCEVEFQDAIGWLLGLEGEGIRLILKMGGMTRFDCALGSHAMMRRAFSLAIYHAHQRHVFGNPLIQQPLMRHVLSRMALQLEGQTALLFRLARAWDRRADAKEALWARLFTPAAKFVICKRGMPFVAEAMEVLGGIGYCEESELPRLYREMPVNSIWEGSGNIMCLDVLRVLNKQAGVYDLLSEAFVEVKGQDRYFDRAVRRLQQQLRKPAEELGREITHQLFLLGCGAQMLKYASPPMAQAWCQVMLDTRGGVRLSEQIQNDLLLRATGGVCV

[2] = molecular target: T1, AidB; assay: EMSA
[3] = molecular target: T1, AidB; assay: competition; remark: listed apart in the source

B1: rrnB P1ΔUP (-UP), unlabelled competitor (dsDNA)
DNA 1: CCTCTTGTCAGGCCGGAATAACTCCCTATAAT
DNA 2: ATTATAGGGAGTTATTCCGGCCTGACAAGAGG
- binding result [1]: no binding

B2: rrnB P1wt (+UP), biotinylated probe (dsDNA)
DNA 1: AGAAAATTATTTTAAATTTCCTCTTGTCAGGCCGGAATAACTCCCTATAAT
DNA 2: ATTATAGGGAGTTATTCCGGCCTGACAAGAGGAAATTTAAAATAATTTTCT
- binding result [2]: binds

B3: rrnB P1wt (+UP), unlabelled competitor (dsDNA)
DNA 1: B2 DNA 1
DNA 2: B2 DNA 2
- binding result [3]: binds
